Substrate: OC[C@H]1O[C@@H](O[C@H]2[C@H](O)[C@@H](O)C(O)O[C@@H]2CO)[C@H](O)[C@@H](O)[C@H]1O
Assay: Determination of KM with lactose as substrate
Type: biochemical, Paenibacillus wynnii
Settings: 8 °C
Description: For the substrate solution 400 mM lactose was dissolved in Novo buffer (the composition of which is depicted in Table 4). The beta-galactosidase activity was determined in a thermo shaker in 1.5 mL reaction tubes at 8°C. The enzyme mix and the lactose solution were preincubated at 8 °C for 12 min. To start the enzymatic reaction 100 µL of the enzyme mix were added to 100 µL lactose solution. The reaction was carried out for 5 min at 8 °C. The reaction was stopped by adding 300 µL 1 M HClO4 to the enzyme-substrate-mix. The mix was kept on ice for 5 min before it was centrifuged at 13 000 rcf and 4 °C for 5 min. 160 µL of the supernatant were transferred to 75 µL 2 M KOH to neutralise the solution. The neutralisation step was checked using pH paper and the pH was adjusted if necessary. The solution was kept on ice for another 5 min before it was centrifuged at 13 000 rcf at 4 °C for 5 min. All assays were performed in triplicate. Table 4: Composition of Novo buffer
The kinetic parameters were determined using the natural substrate lactose. The reaction matrices and conditions were chosen in order to simulate conditions in milk systems. The chosen reaction matrices were Novo buffer (cf. Table 4, above) and milk diluted with Novo buffer. The reaction temperature was 8 °C and the pH value was 6.7.
For the determination of the KM values of P. wynnii beta-galactosidase lactose concentrations ranged from 0.76 mM to 97.5 mM. In order to obtain different lactose concentrations in milk, milk was diluted with Novo buffer. […] The enzyme activities were measured under initial reaction velocity conditions of the enzyme. The reaction times for the initial velocity of the enzymes were determined in previous experiments. The kinetic parameter KM was analysed using the Enzyme Kinetics Module in SigmaPlot 12.5 (Systat Software, Inc., San Jose, USA).
In the case of the studies in Novo buffer the enzyme activity decreased again with increasing lactose concentration. […] Table 6: Summary of the determined KM values using the Enzyme Kinetics Module in SigmaPlot 12.5. […]

B1: P. wynnii beta-galactosidase (SEQ ID NO: 1) (Paenibacillus wynnii) (protein)
chain: MRKKLVYSPPTNGYPEWNNNPECFQINRMDAHATWIPFNTTEDALLGDPQSSPNYLSLNGMWKFAYAETPDQRIRNFFEKNYDCSSWAELNVPSHWQMHGYDYPQYTNVRYPWSEREPELKPPFAPTQYNPVGSYVRTFSVPEDWSGKPVFISFQGVESAFYVWLNGELVGYSEDTFTPAEFDLTPYLIPGDNKLAVEVYRWCDASWLEDQDFWRLSGIFRDVYLYTTPEAHIYDFFVRTELDEQYRHAELQLDVKLMDYFERTAEAVIVHAQLYDHDQNAIFDQPLSQTVYFNSASTQTLQFSSSIIDPLKWSAEHPNLYTLVLSLHHVDGELMEAVSCRVGFRTFELKDGLMKINGKRIVFKGVNRHEFSCDTGRSIDVDDMVRDILLMKAHNINAVRTSHYPNQTIWYDLCDQYGLYVIDETNLETHGSWSYGQTDLGGNTVPGSRPEWRANVLDRCNSMLQRDKNHPSIVIWSLGNESFGGDNFVAMHDFLKKEDPSRLVHYEGLFHYRESDVASDIESTMYISPADVEQYALNDPKKPYILCEYSHAMGNSCGGLHLYWEVFEKYDILQGAFIWDWIDQAIRLKQADGSMHMAYGGDFGESPHDGNFCGNGLIFADRSVSPKLYEVKKCYQNVKFEAVDLERGIYRVTNQNLFTDLAEYALAWEVSCNGNPVLKGTVDLAVPAGESAEISVPVVDEPNLQSEGEHVLTFSLQLKKSTLWADAGHEVAWEQFLLPTPQFMAGQDQDSVLTSDRGVIVEEQAGRLTVQAADVSLQFSTSSGYLISMQNKGKELLLEPVRPNFWRAVTDNDLGNKHHERCAVWNTAGAGCTLASFESHKNVDGVTVRAKYTVPTVPISSLILEYRIQENGSIEVFEELSPGMGLPEIPEIGLMFIVEDRLDTVSWYGRGPHENYWDRKTGARLGYFSGSVQDQFVPYIRPQECGNKTDVRFASITGGINGSGFRVDGDPVLELNALPWTPAELEANDHIYKLPASNKTVVRVNYKQMGVGGDNSWGATTHPEFTLPADQTYGFRFTIRMV
Km (other: Novo buffer, pH 6.7, A: evaluation according to Michaelis-Menten, pH 6.7): 340 ± 84 µM
Km (other: Novo buffer, pH 6.7, B: evaluation under consideration of substrate inhibition, pH 6.7): 520 ± 89 µM
Km (other: milk + Novo buffer): 630 µM

Source: patent EP3911180B1, “PAENIBACILLUS WYNNII BETA-GALACTOSIDASE FOR THE PRODUCTION OF LACTOSE-DEPLETED AND GOS-ENRICHTED DAIRY PRODUCTS” (Universität Hohenheim, priority 2019, dated 2020)
